Experimental data published in publication PMC12046049 (2025).

Experiments:
[1] = target: HSPB1ACD (α-crystallin domain of HSPB1) (human)
[2] = target: T1, HSPB5ACD (α-crystallin domain of HSPB5) (human)
T1 chain: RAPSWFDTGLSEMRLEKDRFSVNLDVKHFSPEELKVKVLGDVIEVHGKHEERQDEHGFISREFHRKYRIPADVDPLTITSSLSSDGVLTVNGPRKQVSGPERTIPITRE

[3] = target: HSPB7ACD (α-crystallin domain, residues 78-162 of isoform 2) (human, UniProt Q9UBY9-2 78-162)

HSPB1ACD (α-crystallin domain of HSPB1) (human), sequence (chain, as listed by the source): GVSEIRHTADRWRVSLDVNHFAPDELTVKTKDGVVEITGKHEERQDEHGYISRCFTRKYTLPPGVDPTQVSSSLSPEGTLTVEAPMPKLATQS

Binder | Kd [1] | Kd [2] | Kd [3]
TFRTEIKI [HSPB7 C-terminal peptide (residues 168-175, TFRTEIKI)] | 559 µM | 186 µM | 378 µM
ITIPVTFE [HSPB1 C-terminal peptide (cognate peptide of HSPB1ACD)] |  |  | 109 µM
ERTIPITRE (Limits are not printed. 156-164, containing the IPI motif, is taken by convention from the peptide in the HSPB5 ACD-peptide structure PDB 4M5S; check residues come from the IPI motif, not numbered in the text. Terminal chemistry not stated.) [HSPB5 C-terminal peptide (cognate peptide of HSPB5ACD)] |  | 23 µM | 71 µM
